The values that follow come from the supplement of paper PMC5998384.

Data set [1] deals with HeLa Kyoto. Nature of the data set: solubility in G1/S (NP-40 vs SDS abundance) (log2 ratio); higher = more soluble. To be noted: cell cycle stage: G1/S.
For data set [2], the system named is HeLa Kyoto. The data set is described as follows: melting temperature (median over replicates), in situ; higher = more thermally stable.
Data set [3] relates to HeLa Kyoto. The data set is described as follows: solubility change mitosis vs G1/S (difference of NP-40 vs SDS log2 ratios) (log2 ratio difference); higher = more soluble in mitosis.
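Throughout, for melting temperature (median over replicates), in situ: HeLa Kyoto cells synchronized by double thymidine or nocodazole block, proteins quantified by TMT10plex mass spectrometry, three independent biological replicates.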
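Throughout, for solubility change mitosis vs G1/S (difference of NP-40 vs SDS log2 ratios): synchronized HeLa Kyoto cells (double thymidine block for G1/S, nocodazole release for mitosis), protein amounts in NP-40 versus SDS lysates quantified by mass spectrometry, three biological replicates.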
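Throughout, for solubility in G1/S (NP-40 vs SDS abundance): HeLa Kyoto cells arrested at G1/S by double thymidine block, proteins quantified by TMT10plex mass spectrometry in mild NP-40 versus SDS extracts, three biological replicates.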

Regarding “MSDESASGSDPDLDPDVELEDAEEEEEEEEVAVEECDRDDEEDLLDDPSLEGMCGTEHAQLGEDGQQPPRCTSTTSSQSEPSEQLRRHQGKNLASEDPKKKRAQKPSHMRRNIRKLLREDQLEPVTKAAQQEELERRKRLEQQRKDYAAPIPTVPLEFLPEEIALRASDGPQLPPRVLAQEVICLDSSSGSEDEKSSRDEVIELSSGEEDTLHIVDSSESVSEDDEEEEKGGTHVNDVLNQRDALGRVLVNLNHPPEEENVFLAPQLARAVKPHQIGGIRFLYDNLVESLERFKTSSGFGCILAHSMGLGKTLQVISFIDVLFRHTPAKTVLAIVPVNTLQNWLAEFNMWLPPPEALPADNKPEEVQPRFFKVHILNDEHKTMASRAKVMADWVSEGGVLLMGYEMYRLLTLKKSFATGRPKKTKKRSHPVIIDLDEEDRQQEFRREFEKALCRPGPDVVICDEGHRIKNCQASTSQALKNIRSRRRVVLTGYPLQNNLIEYWCMVDFVRPDFLGTRQEFSNMFERPILNGQCIDSTPQDVRLMRYRSHVLHSLLEGFVQRRGHTVLKIHLPAKEENVILVRLSKIQRDLYTQFMDRFRDCGSSGWLGLNPLKAFCVCCKIWNHPDVLYEALQKESLANEQDLDVEELGSAGTSARCPPQGTKGKGEDSTLASSMGEATNSKFLQGVGFNPFQERGNNIVTYEWAKDLLTNYQTGVLENSPKMVLLFHLIEESVKLGDKILVFSQSLSTLALIEEFLGKREVPCPPGTEGQGAQKWVRNISYFRLDGSTPAFERERLINQFNDPSNLTTWLFLLSTRAGCLGVNLIGANRVVVFDASWNPCHDAQAVCRVYRYGQKKPCYIYRLVADYTLEKKIYDRQISKQGMSDRVVDDLNPMLNFTRKEVENLLHFVEKEPAPQVSLNVKGIKESVLQLACLKYPHLITKEPFEHESLLLNRKDHKLTKAEKKAAKKSYEEDKRTSVPYTRPSYAQYYPASDQSLTSIPAFSQRNWQPTLKGDEKPVASVRPVQSTPIPMMPRHVPLGGSVSSASSTNPSMNFPINYLQRAGVLVQKVVTTTDIVIPGLNSSTDVQARINAGESIHIIRGTKGTYIRTSDGRIFAVRATGKPKVPEDGRMAASGSQGPSCESTSNGRHSASSPKAPDPEGLARPVSPDSPEIISELQQYADVAAARESRQSSPSTNAALPGPPAQLMDSSAVPGTALGTEPRLGGHCLNSSLLVTGQPCGDRHPVLDLRGHKRKLATPPAAQESSRRRSRKGHLPAPVQPYEHGYPVSGGFAMPPVSLNHNLTTPFTSQAGENSLFMGSTPSYYQLSNLLADARLVFPVTTDPLVPAGPVSSSSTATSVTASNPSFMLNPSVPGILPSYSLPFSQPLLSEPRMFAPFPSPVLPSNLSRGMSIYPGYMSPHAGYPAGGLLRSQVPPFDSHEVAEVGFSSNDDEDKDDDVIEVTGK [RAD54L2]”, in data set [1], the “solubility in G1/S (log2)” value was -0.0448. This sequence also gave a melting temperature in data set [2] (cell cycle stage: mitosis) of 49.7 °C. The “solubility change mitosis (log2)” value in data set [3] is -0.143.

As to “MGEIEGTYRVLQTAGMRLGAQTPVGVSTLEPGQTLLPRMQEKHLHLRVKLLDNTMEIFDIEPKCDGQVLLTQVWKRLNLVECDYFGMEFQNTQSYWIWLEPMKPIIRQIRRPKNVVLRLAVKFFPPDPGQLQEEYTRYLFALQLKRDLLEERLTCADTTAALLTSHLLQSEIGDYDETLDREHLKVNEYLPGQQHCLEKILEFHQKHVGQTPAESDFQVLEIARKLEMYGIRFHMASDREGTKIQLAVSHMGVLVFQGTTKINTFNWSKVRKLSFKRKRFLIKLHPEVHGPYQDTLEFLLGSRDECKNFWKICVEYHTFFRLLDQPKPKAKAVFFSRGSSFRYSGRTQKQLVDYFKDSGMKRIPYERRHSKTHTSVRALTADLPKQSISFPEGLRTPASPSSANAFYSLSPSTLVPSGLPEFKDSSSSLTDPQVSYVKSPAAERRSGAVAGGPDTPSAQPLGPPALQPGPGLSTKSPQPSPSSRKSPLSLSPAFQVPLGPAEQGSSPLLSPVLSDAGGAGMDCEEPRHKRVPADEAYFIVKEILATERTYLKDLEVITVWFRSAVVKEDAMPATLMTLLFSNIDPIYEFHRGFLREVEQRLALWEGPSKAHTKGSHQRIGDILLRNMRQLKEFTSYFQRHDEVLTELEKATKRCKKLEAVYKEFELQKVCYLPLNTFLLKPIQRLLHYRLLLRRLCGHYSPGHHDYADCHDALKAITEVTTTLQHILIRLENLQKLTELQRDLVGIENLIAPGREFIREGCLHKLTKKGLQQRMFFLFSDMLLYTSKGVAGTSHFRIRGLLPLQGMLVEESDNEWSVPHCFTIYAAQKTIVVAASTRLEKEKWMLDLNSAIQAAKSGGDTAPALPGRTVCTRPPRSPNEVSLEQESEDDARGVRSSLEGHGQHRANTTMHVCWYRNTSVSRADHSAAVENQLSGYLLRKFKNSHGWQKLWVVFTNFCLFFYKTHQDDYPLASLPLLGYSVSIPREADGIHKDYVFKLQFKSHVYFFRAESKYTFERWMEVIQGASSSAGRAPSIVQDGPQPSSGLEGMVRGKEE [FARP2]”, the “solubility in G1/S (log2)” value in data set [1] is -0.166. For the same sequence, the melting temperature in data set [2] (cell cycle stage: mitosis) is 50 °C. Further, the “solubility change mitosis (log2)” value in data set [3] was -0.0474.

As to “MAALGRPFSGLPLSGGSDFLQPPQPAFPGRAFPPGADGAELAPRPGPRAVPSSPAGSAARGRVSVHCKKKHKREEEEDDDCPVRKKRITEAELCAGPNDWILCAHQDVEGHGVNPSVSGLSIPGILDVICEEMDQTTGEPQCEVARRKLQEIEDRIIDEDEEVEADRNVNHLPSLVLSDTMKTGLKREFDEVFTKKMIESMSRPSMELVLWKPLPELLSDKPKPSSNTKNYTGESQAKHVAAGTAFPQRTELFSEPRPTGMSLYNSLETATSTEEEMEL [CCDC117]”, the “solubility in G1/S (log2)” value in data set [1] amounted to 0.515. Further, the melting temperature in data set [2] (cell cycle stage: G1/S) was 51.6 °C; in data set [2] (cell cycle stage: mitosis), 53.2 °C. Also, the “solubility change mitosis (log2)” value in data set [3] amounted to 0.183.

Consider “MADSSPALSLREGGPRAPRPSAPSPPPRSRSGSESEEAELSLSLARTKTRSYGSTASVRAPLGAGVIERHVEHRVRAGDTLQGIALKYGVTMEQIKRANKLFTNDCIFLKKTLNIPVISEKPLLFNGLNSIDSPENETADNSFSQEEEPVVAGEDLPPPSPQESDVQPVQPEEVSARDFLQRLDLQIKLSTQAAKKLKEESRDEESPYATSLYHS [LYSMD2]”, for which, in data set [1], the “solubility in G1/S (log2)” value was 0.0316. The melting temperature in data set [2] (cell cycle stage: G1/S) was 52 °C; in data set [2] (cell cycle stage: mitosis) it was 51.8 °C. Besides, in data set [3], the “solubility change mitosis (log2)” value is -0.0367.

Consider “MMATPNQTACNAESPVALEEAKTSGAPGSPQTPPERHDSGGSLPLTPRMESHSEDEDLAGAVGGLGWNSRSPRTQSPGGCSAEAVLARKKHRRRPSKRKRHWRPYLELSWAEKQQRDERQSQRASRVREEMFAKGQPVAPYNTTQFLMNDRDPEEPNLDVPHGISHPGSSGESEAGDSDGRGRAHGEFQRKDFSETYERFHTESLQGRSKQELVRDYLELEKRLSQAEEETRRLQQLQACTGQQSCRQVEELAAEVQRLRTENQRLRQENQMWNREGCRCDEEPGT [HEXIM2]”, for which, in data set [1], the “solubility in G1/S (log2)” value came to 0.492. Further, the melting temperature in data set [2] (cell cycle stage: G1/S) worked out at 54.6 °C; in data set [2] (cell cycle stage: mitosis), 53.4 °C. Besides, the “solubility change mitosis (log2)” value in data set [3] is 0.139.

Consider “MGLGPVFLLLAGIFPFAPPGAAAEPHSLRYNLTVLSWDGSVQSGFLTEVHLDGQPFLRCDRQKCRAKPQGQWAEDVLGNKTWDRETRDLTGNGKDLRMTLAHIKDQKEGLHSLQEIRVCEIHEDNSTRSSQHFYYDGELFLSQNLETKEWTMPQSSRAQTLAMNVRNFLKEDAMKTKTHYHAMHADCLQELRRYLKSGVVLRRTVPPMVNVTRSEASEGNITVTCRASGFYPWNITLSWRQDGVSLSHDTQQWGDVLPDGNGTYQTWVATRICQGEEQRFTCYMEHSGNHSTHPVPSGKVLVLQSHWQTFHVSAVAAAAIFVIIIFYVRCCKKKTSAAEGPELVSLQVLDQHPVGTSDHRDATQLGFQPLMSDLGSTGSTEGA [MICA]”, for which the “solubility in G1/S (log2)” value in data set [1] is -0.128. For the same sequence, the melting temperature stood at 55.9 °C in data set [2] (cell cycle stage: G1/S) and 57.2 °C in data set [2] (cell cycle stage: mitosis). Moreover, in data set [3], the “solubility change mitosis (log2)” value is -0.108.

“MSRKQNQKDSSGFIFDLQSNTVLAQGGAFENMKEKINAVRAIVPNKSNNEIILVLQHFDNCVDKTVQAFMEGSASEVLKEWTVTGKKKNKKKKNKPKPAAEPSNGIPDSSKSVSIQEEQSAPSSEKGGMNGYHVNGAINDTESVDSLSEGLETLSIDARELEDPESAMLDTLDRTGSMLQNGVSDFETKSLTMHSIHNSQQPRNAAKSLSRPTTETQFSNMGMEDVPLATSKKLSSNIEKSVKDLQRCTVSLARYRVVVKEEMDASIKKMKQAFAELESCLMDREVALLAEMDKVKAEAMEILLSRQKKAELLKKMTHVAVQMSEQQLVELRADIKHFVSERKYDEDLGRVARFTCDVETLKKSIDSFGQVSHPKNSYSTRSRCSSVTSVSLSSPSDASAASSSTCASPPSLTSANKKNFAPGETPAAIANSSGQPYQPLREVLPGNRRGGQGYRPQGQKSNDPMNQGRHDSMGRYRNSSWYSSGSRYQSAPSQAPGNTIERGQTHSAGTNGTGVSMEPSPPTPSFKKGLPQRKPRTSQTEAVNS [SPATS2]”: in data set [1], the “solubility in G1/S (log2)” value is -1.01. Further, the values for the melting temperature in data set [2] (cell cycle stage: G1/S) and in data set [2] (cell cycle stage: mitosis) were 52.2 °C and 51.5 °C, respectively. The “solubility change mitosis (log2)” value in data set [3] was determined as 0.928.
